Test results: article PMC5641120, “Small-molecule inhibitors of PD-1/PD-L1 immune checkpoint alleviate the PD-L1-induced exhaustion of T-cells” (Oncotarget, 2017)

Tested on: PD-1/sPD-L1
Test: PD-1/sPD-L1 effector assay (anti-CD3 activated ECs, luciferase)
Format: cell-based, human
Details: anti-CD3 with sPD-L1 (wt or mutein), 24 h, luciferase reporter
Experimental: To evaluate the potential of BMS compounds in abrogating the inhibitory effect of sPD-L1 on the activation of T cells, sPD-L1 was pre-incubated with tested compounds and presented to ECs together with the anti-CD3-activating antibody.
For the evaluation of the BMS impact on T cell inhibition by soluble PD-L1, the ECs were stimulated with the anti-CD3 antibody in the presence of the recombinant human sPD-L1. For this, the 96-well white flat bottom plates were coated overnight at 4°C with 5 μg/ml of the anti-CD3 antibody or the isotype control solution in PBS. […] Then, 15 μl of the solution was added to each well of the antibody-coated plate. ECs were centrifuged and diluted to 50 000 per ml, and 60 μl of the cell solution was added to each well. The final concentration of sPD-L1 was 10 μg/ml (0.6 μM). The final concentrations of the BMS compounds were: 0.12, 0.3, 1.2 and 3 μM, giving the following BMS:sPD-L1 molar ratios: 1:5, 1:2, 2:1 and 5:1. The cells were cultured for 24 h and the luciferase activity assay was performed using the Bio-Glo Luciferase Assay System (Promega) according to the manufacturer's instructions.

B1: sPD-L1: recombinant human soluble PD-L1 (residues 18–134, C-terminal His-tag) (protein)
chain: AFTVTVPKDLYVVEYGSNMTIECKFPVEKQLDLAALIVYWEMEDKNIIQFVHGEEDLKVQHSSYRQRARLLKDQLSLGNAALQITDVKLQDAGVYRCMISYGGADYKRITVKVNAPY
modifications: NTA-Atto 647 N fluorescent dye on the His-tag (flow cytometry only); uniform 15N labelling (NMR titration with compounds only); left off: His-tag, C-terminal, kept
- effect of soluble PD-L1 protein on anti-CD3 mediated activation of ECs: decreased reporter expression to about half
